Data taken from paper PMC6722581.

Tests used:
[1] = target: SLAM (Canis lupus familiaris) (UniProt Q95MM9); conditions: cited from earlier work
[2] = target: head domain of measles virus hemagglutinin, Edmonston vaccine strain (measles virus, Edmonston strain) (UniProt P08362); experiment: SPR
[3] = target: head domain of measles virus hemagglutinin, IC-B wild-type strain (measles virus, IC-B strain) (UniProt Q786F2); experiment: SPR
Chain of UniProt Q786F2 (Q786F2 149-617): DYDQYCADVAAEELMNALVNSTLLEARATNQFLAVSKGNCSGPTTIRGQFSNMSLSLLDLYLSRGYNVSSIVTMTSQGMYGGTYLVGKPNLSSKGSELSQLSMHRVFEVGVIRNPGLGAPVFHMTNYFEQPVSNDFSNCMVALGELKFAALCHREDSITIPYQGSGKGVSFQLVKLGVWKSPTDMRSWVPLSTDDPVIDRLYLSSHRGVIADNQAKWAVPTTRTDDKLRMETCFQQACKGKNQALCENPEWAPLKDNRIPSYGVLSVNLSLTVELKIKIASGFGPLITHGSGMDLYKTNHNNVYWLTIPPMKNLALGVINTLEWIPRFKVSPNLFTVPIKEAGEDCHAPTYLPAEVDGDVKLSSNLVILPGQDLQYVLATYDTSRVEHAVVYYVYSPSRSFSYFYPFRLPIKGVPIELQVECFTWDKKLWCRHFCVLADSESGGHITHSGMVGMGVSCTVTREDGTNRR

Chain of UniProt P08362 (P08362 149-617): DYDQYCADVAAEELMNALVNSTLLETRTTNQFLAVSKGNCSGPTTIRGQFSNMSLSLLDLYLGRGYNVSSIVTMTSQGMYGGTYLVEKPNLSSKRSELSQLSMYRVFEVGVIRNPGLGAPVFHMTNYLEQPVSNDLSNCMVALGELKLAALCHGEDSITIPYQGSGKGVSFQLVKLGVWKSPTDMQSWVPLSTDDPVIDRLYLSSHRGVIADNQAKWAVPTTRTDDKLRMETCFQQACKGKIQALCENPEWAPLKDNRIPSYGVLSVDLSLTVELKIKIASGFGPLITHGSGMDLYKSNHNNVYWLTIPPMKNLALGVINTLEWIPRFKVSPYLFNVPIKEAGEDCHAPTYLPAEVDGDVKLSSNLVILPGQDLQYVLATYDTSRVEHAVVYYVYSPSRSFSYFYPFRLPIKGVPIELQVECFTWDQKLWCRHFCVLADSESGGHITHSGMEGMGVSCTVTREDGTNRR
Chain of UniProt Q95MM9 (Q95MM9 27-342): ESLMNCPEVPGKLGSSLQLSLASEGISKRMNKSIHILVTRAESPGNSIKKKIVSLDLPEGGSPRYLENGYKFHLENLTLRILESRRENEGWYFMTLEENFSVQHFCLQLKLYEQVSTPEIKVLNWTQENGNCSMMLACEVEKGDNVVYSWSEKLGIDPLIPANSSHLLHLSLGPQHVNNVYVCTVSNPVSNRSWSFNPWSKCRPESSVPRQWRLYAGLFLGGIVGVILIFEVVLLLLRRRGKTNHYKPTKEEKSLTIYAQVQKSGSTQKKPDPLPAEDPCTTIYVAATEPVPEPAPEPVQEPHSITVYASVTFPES

Substance	Kd [1]	Kd [2]	koff [2]	kon [2]	Kd [3]	koff [3]	kon [3]
CDV-A75/17 hemagglutinin (from UniProt Q65999)	8000 nM						
soluble SLAM ectodomain (V-set and C2) from cotton-top tamarin (domain or fragment)		46.7 nM	0.000952 s⁻¹	20400 M⁻¹ s⁻¹	243 nM	0.00241 s⁻¹	9890 M⁻¹ s⁻¹
